# Experimental data reported in US20150175707.
# Experiment: HP-SEC as in Example 20; Fc:Fc self-oligomerization
Substance,fraction oligomer (HP-SEC),% multimeric (HP-SEC)
IgG1-2F8-RGY (EGFR antibody 2F8 with E345R/E430G/S440Y),IgG1-2F8-RGY (74.5%),–
IgG1-7D8-RGY (CD20 antibody 7D8 with E345R/E430G/S440Y),IgG1-7D8-RGY (67.2%),–
IgG2-005-RGY (IgG2-005-E345R/E430G/S440Y),–,IgG2-005-RGY (46.1% multimeric)
IgG3-005-RGY,–,IgG3-005-RGY (37.8% multimeric)
IgG4-005-RGY,–,IgG4-005-RGY (84.4% multimeric)
